Experimental data reported in patent US20190183138.

What was measured:
bovine κ-casein = bovine κ-casein (UniProt P02668)
bovine β-casein = target: T1, bovine β-casein (UniProt P02666)
T1 sequence: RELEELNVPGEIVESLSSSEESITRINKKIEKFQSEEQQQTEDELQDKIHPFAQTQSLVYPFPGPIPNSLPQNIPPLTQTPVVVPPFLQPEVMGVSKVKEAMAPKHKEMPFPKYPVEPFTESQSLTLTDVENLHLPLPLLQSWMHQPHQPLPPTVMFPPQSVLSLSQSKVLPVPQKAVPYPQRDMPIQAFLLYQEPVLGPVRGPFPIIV

Chain of bovine κ-casein (P02668 22-190): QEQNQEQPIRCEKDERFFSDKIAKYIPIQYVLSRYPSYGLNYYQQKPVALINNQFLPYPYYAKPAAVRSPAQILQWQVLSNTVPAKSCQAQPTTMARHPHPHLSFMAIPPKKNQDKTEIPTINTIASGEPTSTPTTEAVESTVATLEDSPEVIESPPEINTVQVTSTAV

| Substance | hydrolysis of isolated casein as a function of time (SDS-PAGE) (bovine α-casein) | Km (bovine κ-casein) [mg/mL] | hydrolysis of isolated casein as a function of time (SDS-PAGE) (bovine κ-casein) | kcat (min) (bovine κ-casein) [s⁻¹] | kcat./Km [mL/(mg · min)] (mL/(mg · min)) (bovine κ-casein) | hydrolysis of isolated casein as a function of time (SDS-PAGE) (bovine β-casein) |
| --- | --- | --- | --- | --- | --- | --- |
| Cynanchum otophyllum Schneid. protease QA (identified as asclepain of Asclepias Linn.) | α-casein was only partially hydrolyzed | 0.397 ± 0.002 | hydrolysis by QA required almost 4 h | 1.66 | 251 ± 6.11 | β-Casein and κ-casein were completely hydrolyzed after 4 h of incubation |
| Cynanchum otophyllum Schneid. protease QC (identified as cysteine protease B of Calotropis R. Br.) | α-casein was only partially hydrolyzed | 1.708 ± 0.014 | Most of the κ-casein was hydrolyzed by QC after 30 min of incubation | 1.39 | 49 ± 1.93 | The QC also exhibited a higher rate of hydrolysis than QA for β-casein and κ-casein |
